Target: KGF receptor (membrane preparations from Balb/MK mouse epidermal keratinocytes) (mouse) (UniProt P21803)
Test: radioreceptor competition against 125I-labeled E. coli KGF, Balb/MK membrane preparations

KGF receptor (membrane preparations from Balb/MK mouse epidermal keratinocytes) (mouse), sequence (P21803 22-821): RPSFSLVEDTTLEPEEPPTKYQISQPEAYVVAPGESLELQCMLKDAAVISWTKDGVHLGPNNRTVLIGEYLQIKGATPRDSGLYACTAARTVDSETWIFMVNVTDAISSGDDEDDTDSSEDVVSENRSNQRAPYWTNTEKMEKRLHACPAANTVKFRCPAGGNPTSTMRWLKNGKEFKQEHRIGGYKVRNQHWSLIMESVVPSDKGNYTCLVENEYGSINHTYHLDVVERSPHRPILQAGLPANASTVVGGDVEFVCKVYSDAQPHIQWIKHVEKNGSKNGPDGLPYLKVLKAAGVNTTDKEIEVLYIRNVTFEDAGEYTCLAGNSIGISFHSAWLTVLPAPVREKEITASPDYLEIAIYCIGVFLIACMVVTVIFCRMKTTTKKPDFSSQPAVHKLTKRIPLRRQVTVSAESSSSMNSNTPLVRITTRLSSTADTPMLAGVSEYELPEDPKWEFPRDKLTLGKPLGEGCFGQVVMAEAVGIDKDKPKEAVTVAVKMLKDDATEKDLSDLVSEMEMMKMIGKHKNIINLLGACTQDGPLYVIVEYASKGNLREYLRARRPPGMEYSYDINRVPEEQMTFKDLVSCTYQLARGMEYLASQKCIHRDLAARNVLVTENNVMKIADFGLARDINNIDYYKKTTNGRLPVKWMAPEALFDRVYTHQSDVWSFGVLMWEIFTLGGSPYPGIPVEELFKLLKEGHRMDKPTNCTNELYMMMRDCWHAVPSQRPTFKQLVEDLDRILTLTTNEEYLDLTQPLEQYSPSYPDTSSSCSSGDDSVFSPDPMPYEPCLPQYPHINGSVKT

Substance | KGF concentration to compete receptor binding with I^125-labeled KGF at 60% uncompetition rate
KGF-a (CHO-derived glycosylated recombinant KGF, 25-29 kDa form) (ligand) | 93.5 ng/mL
KGF-b (CHO-derived N-terminally truncated unglycosylated KGF, about 17 kDa, cleaved at Arg23-Ser24) (ligand) | 89.1 ng/mL
E. coli-derived, full-length native KGF (keratinocyte growth factor) (ligand) | 65.8 ng/mL

— patent EP0785948B1
